This note sets out measurements from article doi:10.1101/306175.

The target in data set [1] is Pol β "wild-type" (unlabelled) (UniProt P06746 1-335, C239S;C267S;V303C). Kind of data set: single-molecule FRET titration.
For data set [2], the target named is DNA polymerase I Klenow Fragment (KF) (E. coli, UniProt P00582 324-928, D424A). Kind of data set: single-molecule FRET.

B1: 1-nt gapped DNA bending sensor (Cy3B/Cy5) (dsDNA)
DNA 1: CCTCATTCTTCGTCCCATTACCATACATCC
DNA 2: CCACGAAGCAGGCTCTACTCTCTAAGGATGTATGGTAATGGGACGAAGAATGAGG
DNA 3: TAGAGAGTAGAGCCTGCTTCGTGG
modifications: primer 3' dideoxy-terminated (printed TCCH); 5'-phosphate on downstream strand
A word on the Kd: it is a measure of binding affinity in units of concentration. Molecule B1 returned a dissociation constant Kd in data set [1] of 19 ± 2 nM. The binding result in data set [2] is recorded as “binds”.
